Results on five sequences are retold here after the supplement of paper PMC5998384.

Data set [1] deals with HeLa Kyoto. The experiment in a line: solubility in G1/S (NP-40 vs SDS abundance) (log2 ratio); higher = more soluble. The note with it: cell cycle stage: G1/S.
In data set [2] the test system is HeLa Kyoto. The experiment in a line: melting temperature (median over replicates), in situ; higher = more thermally stable.
Data set [3] relates to HeLa Kyoto. Put plainly: solubility change mitosis vs G1/S (difference of NP-40 vs SDS log2 ratios) (log2 ratio difference); higher = more soluble in mitosis.
Data set [4] deals with HeLa Kyoto. The experiment in a line: thermal stability score vs G1/S (z-score of summed log2 fold changes over temperatures); higher = more thermally stable than in G1/S.
Setting [5] is: cell cycle stage: early G1 (4.5 h after nocodazole release).
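Throughout, for melting temperature (median over replicates), in situ: HeLa Kyoto cells synchronized by double thymidine or nocodazole block, proteins quantified by TMT10plex mass spectrometry, three independent biological replicates.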
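Throughout, for solubility change mitosis vs G1/S (difference of NP-40 vs SDS log2 ratios): synchronized HeLa Kyoto cells (double thymidine block for G1/S, nocodazole release for mitosis), protein amounts in NP-40 versus SDS lysates quantified by mass spectrometry, three biological replicates.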
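Throughout, for solubility in G1/S (NP-40 vs SDS abundance): HeLa Kyoto cells arrested at G1/S by double thymidine block, proteins quantified by TMT10plex mass spectrometry in mild NP-40 versus SDS extracts, three biological replicates.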
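Throughout, for thermal stability score vs G1/S (z-score of summed log2 fold changes over temperatures): synchronized HeLa Kyoto cells, proteins quantified by TMT10plex mass spectrometry, three biological replicates, mitosis taken 0.5 h after nocodazole release, G1/S directly after double thymidine block.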

For “MAACEGRRSGALGSSQSDFLTPPVGGAPWAVATTVVMYPPPPPPPHRDFISVTLSFGENYDNSKSWRRRSCWRKWKQLSRLQRNMILFLLAFLLFCGLLFYINLADHWKALAFRLEEEQKMRPEIAGLKPANPPVLPAPQKADTDPENLPEISSQKTQRHIQRGPPHLQIRPPSQDLKDGTQEEATKRQEAPVDPRPEGDPQRTVISWRGAVIEPEQGTELPSRRAEVPTKPPLPPARTQGTPVHLNYRQKGVIDVFLHAWKGYRKFAWGHDELKPVSRSFSEWFGLGLTLIDALDTMWILGLRKEFEEARKWVSKKLHFEKDVDVNLFESTIRILGGLLSAYHLSGDSLFLRKAEDFGNRLMPAFRTPSKIPYSDVNIGTGVAHPPRWTSDSTVAEVTSIQLEFRELSRLTGDKKFQEAVEKVTQHIHGLSGKKDGLVPMFINTHSGLFTHLGVFTLGARADSYYEYLLKQWIQGGKQETQLLEDYVEAIEGVRTHLLRHSEPSKLTFVGELAHGRFSAKMDHLVCFLPGTLALGVYHGLPASHMELAQELMETCYQMNRQMETGLSPEIVHFNLYPQPGRRDVEVKPADRHNLLRPETVESLFYLYRVTGDRKYQDWGWEILQSFSRFTRVPSGGYSSINNVQDPQKPEPRDKMESFFLGETLKYLFLLFSDDPNLLSLDAYVFNTEAHPLPIWTPA [MAN1B1]”, in data set [1], the “solubility in G1/S (log2)” value worked out at 0.19. Also, the melting temperature amounted to 51.6 °C in data set [2] (cell cycle stage: G1/S) and 52.1 °C in data set [2] (cell cycle stage: mitosis). The “solubility change mitosis (log2)” value in data set [3] is -0.189. In addition, the results for the thermal stability score in data set [4] (setting [5]) and in data set [4] (cell cycle stage: mitosis) were 0.594 and 0.346, respectively.
For “MAACRYCCSCLRLRPLSDGPFLLPRRDRALTQLQVRALWSSAGSRAVAVDLGNRKLEISSGKLARFADGSAVVQSGDTAVMVTAVSKTKPSPSQFMPLVVDYRQKAAAAGRIPTNYLRREIGTSDKEILTSRIIDRSIRPLFPAGYFYDTQVLCNLLAVDGVNEPDVLAINGASVALSLSDIPWNGPVGAVRIGIIDGEYVVNPTRKEMSSSTLNLVVAGAPKSQIVMLEASAENILQQDFCHAIKVGVKYTQQIIQGIQQLVKETGVTKRTPQKLFTPSPEIVKYTHKLAMERLYAVFTDYEHDKVSRDEAVNKIRLDTEEQLKEKFPEADPYEIIESFNVVAKEVFRSIVLNEYKRCDGRDLTSLRNVSCEVDMFKTLHGSALFQRGQTQVLCTVTFDSLESGIKSDQVITAINGIKDKNFMLHYEFPPYATNEIGKVTGLNRRELGHGALAEKALYPVIPRDFPFTIRVTSEVLESNGSSSMASACGGSLALMDSGVPISSAVAGVAIGLVTKTDPEKGEIEDYRLLTDILGIEDYNGDMDFKIAGTNKGITALQADIKLPGIPIKIVMEAIQQASVAKKEILQIMNKTISKPRASRKENGPVVETVQVPLSKRAKFVGPGGYNLKKLQAETGVTISQVDEETFSVFAPTPSAMHEARDFITEICKDDQEQQLEFGAVYTATITEIRDTGVMVKLYPNMTAVLLHNTQLDQRKIKHPTALGLEVGQEIQVKYFGRDPADGRMRLSRKVLQSPATTVVRTLNDRSSIVMGEPISQSSSNSQ [PNPT1]”, the “solubility in G1/S (log2)” value in data set [1] was 0.0945. Further, the figures for the melting temperature in data set [2] (cell cycle stage: G1/S) and in data set [2] (cell cycle stage: mitosis) were 49.8 °C and 50 °C, respectively. In data set [3], the “solubility change mitosis (log2)” value was -0.154. Also, the thermal stability score in data set [4] (setting [5]) came to 0.177; in data set [4] (cell cycle stage: mitosis) it was 1.84.
For “MAAEQDPEARAAARPLLTDLYQATMALGYWRAGRARDAAEFELFFRRCPFGGAFALAAGLRDCVRFLRAFRLRDADVQFLASVLPPDTDPAFFEHLRALDCSEVTVRALPEGSLAFPGVPLLQVSGPLLVVQLLETPLLCLVSYASLVATNAARLRLIAGPEKRLLEMGLRRAQGPDGGLTASTYSYLGGFDSSSNVLAGQLRGVPVAGTLAHSFVTSFSGSEVPPDPMLAPAAGEGPGVDLAAKAQVWLEQVCAHLGLGVQEPHPGERAAFVAYALAFPRAFQGLLDTYSVWRSGLPNFLAVALALGELGYRAVGVRLDSGDLLQQAQEIRKVFRAAAAQFQVPWLESVLIVVSNNIDEEALARLAQEGSEVNVIGIGTSVVTCPQQPSLGGVYKLVAVGGQPRMKLTEDPEKQTLPGSKAAFRLLGSDGSPLMDMLQLAEEPVPQAGQELRVWPPGAQEPCTVRPAQVEPLLRLCLQQGQLCEPLPSLAESRALAQLSLSRLSPEHRRLRSPAQYQVVLSERLQALVNSLCAGQSP [NAPRT]”, the “solubility in G1/S (log2)” value in data set [1] is 0.352. Besides, the melting temperature in data set [2] (cell cycle stage: G1/S) was 56.9 °C; in data set [2] (cell cycle stage: mitosis) it was 56.7 °C. In data set [3], the “solubility change mitosis (log2)” value is -0.0823. For the same sequence, the thermal stability score is 0.14 in data set [4] (setting [5]) and -1.8 in data set [4] (cell cycle stage: mitosis).
With “MAAFSEMGVMPEIAQAVEEMDWLLPTDIQAESIPLILGGGDVLMAAETGSGKTGAFSIPVIQIVYETLKDQQEGKKGKTTIKTGASVLNKWQMNPYDRGSAFAIGSDGLCCQSREVKEWHGCRATKGLMKGKHYYEVSCHDQGLCRVGWSTMQASLDLGTDKFGFGFGGTGKKSHNKQFDNYGEEFTMHDTIGCYLDIDKGHVKFSKNGKDLGLAFEIPPHMKNQALFPACVLKNAELKFNFGEEEFKFPPKDGFVALSKAPDGYIVKSQHSGNAQVTQTKFLPNAPKALIVEPSRELAEQTLNNIKQFKKYIDNPKLRELLIIGGVAARDQLSVLENGVDIVVGTPGRLDDLVSTGKLNLSQVRFLVLDEADGLLSQGYSDFINRMHNQIPQVTSDGKRLQVIVCSATLHSFDVKKLSEKIMHFPTWVDLKGEDSVPDTVHHVVVPVNPKTDRLWERLGKSHIRTDDVHAKDNTRPGANSPEMWSEAIKILKGEYAVRAIKEHKMDQAIIFCRTKIDCDNLEQYFIQQGGGPDKKGHQFSCVCLHGDRKPHERKQNLERFKKGDVRFLICTDVAARGIDIHGVPYVINVTLPDEKQNYVHRIGRVGRAERMGLAISLVATEKEKVWYHVCSSRGKGCYNTRLKEDGGCTIWYNEMQLLSEIEEHLNCTISQVEPDIKVPVDEFDGKVTYGQKRAAGGGSYKGHVDILAPTVQELAALEKEAQTSFLHLGYLPNQLFRTF [DDX1]”, in data set [1], the “solubility in G1/S (log2)” value was -0.286. Besides, the results for the melting temperature in data set [2] (cell cycle stage: G1/S) and in data set [2] (cell cycle stage: mitosis) were 50.7 °C and 50.9 °C, respectively. In data set [3], the “solubility change mitosis (log2)” value came out at 0.00283. Also, the thermal stability score is 0.00991 in data set [4] (setting [5]) and 0.413 in data set [4] (cell cycle stage: mitosis).
As to “MAAGDGDVKLGTLGSGSESSNDGGSESPGDAGAAAEGGGWAAAALALLTGGGEMLLNVALVALVLLGAYRLWVRWGRRGLGAGAGAGEESPATSLPRMKKRDFSLEQLRQYDGSRNPRILLAVNGKVFDVTKGSKFYGPAGPYGIFAGRDASRGLATFCLDKDALRDEYDDLSDLNAVQMESVREWEMQFKEKYDYVGRLLKPGEEPSEYTDEEDTKDHNKQD [PGRMC2]”, the “solubility in G1/S (log2)” value in data set [1] was determined as 0.236. Further, the melting temperature in data set [2] (cell cycle stage: G1/S) stood at 52.3 °C; in data set [2] (cell cycle stage: mitosis), 53.9 °C. In addition, the “solubility change mitosis (log2)” value in data set [3] was -0.00423. Besides, the thermal stability score was -0.577 in data set [4] (setting [5]) and 0.992 in data set [4] (cell cycle stage: mitosis).
